Measurements taken from US20160122395A1, “Immunogenic compositions and a process for producing same” (THE […] INSTITUTE FOR MEDICAL RESEARCH AND PUBLIC HEALTH LTD, priority 2013, published 2016).

What was measured:
[1] = target: HIV-1 AD8 gp120, wild type (HIV-1 (AD8 strain)); experiment: 35S pulse-chase labelling, immunoprecipitation, gp120-shedding index
[2] = target: HIV-1 AD8 gp120 T138N (HIV-1 (AD8 strain)); experiment: as above
[3] = system: HIV-1; details: monotherapy, HIV-1 infected individuals; cited from earlier work
[4] = target: HIV-1 AD8 envelope glycoprotein (Env), wild type (HIV-1 (AD8 strain)); experiment: cell-based or functional assay
[5] = target: HIV-1 AD8 Env ΔN139INN/K601N (HIV-1 (AD8 strain)); experiment: cell-based or functional assay
[6] = system: HIV-1AD8 WL/KH/DE virus; experiment: Neutralization assay in TZM-bl cells, WL/KH/DE virus; type: cell-based
[7] = system: HIV-1AD8 WL/KH virus; experiment: Neutralization assay in TZM-bl cells, WL/KH virus; type: cell-based

HIV-1 AD8 gp41 K601D showed a gp120 shedding into culture supernatant, fold with respect to WT [1] of 6.8 fold and an improvement of gp120-gp41 association, fold with respect to K601D [2] of 2 fold.
In the case of “Ibalizumab: αCD4bs antibody used as monotherapy of HIV-1 infected individuals”, the viral load [3] is listed as “transient drop in viral load to nadir levels followed by a rebound in viral titre”.
C34 fusion inhibitor peptide gave an IC50, inhibition of Env-mediated cell-cell fusion by C34 (luciferase) [4] of 100 nM and an IC50, inhibition of Env-mediated cell-cell fusion by C34 (luciferase) [5] of 100 nM.
For maraviroc, the “neutralization compared to the WT” value [6] was “to similar extents” and the “neutralization compared to the WT” value [7] was “to similar extents”.
With HIV-1 AD8 gp41 K601N the gp120 shedding into culture supernatant, fold with respect to WT [1] was 4.4 fold.
